Experimental data: IntAct's records for PubMed 31515488

B1: Protein-associating with the carboxyl-terminal domain of ezrin (Homo sapiens), Q8IZE3 (parent)
chain: MGSENSALKSYTLREPPFTLPSGLAVYPAVLQDGKFASVFVYKRENEDKVNKAAKHLKTLRHPCLLRFLSCTVEADGIHLVTERVQPLEVALETLSSAEVCAGIYDILLALIFLHDRGHLTHNNVCLSSVFVSEDGHWKLGGMETVCKVSQATPEFLRSIQSIRDPASIPPEEMSPEFTTLPECHGHARDAFSFGTLVESLLTILNEQVSADVLSSFQQTLHSTLLNPIPKCRPALCTLLSHDFFRNDFLEVVNFLKSLTLKSEEEKTEFFKFLLDRVSCLSEELIASRLVPLLLNQLVFAEPVAVKSFLPYLLGPKKDHAQGETPCLLSPALFQSRVIPVLLQLFEVHEEHVRMVLLSHIEAYVEHFTQEQLKKVILPQVLLGLRDTSDSIVAITLHSLAVLVSLLGPEVVVGGERTKIFKRTAPSFTKNTDLSLEDSPMCVVCSHHSQISPILENPFSSIFPKCFFSGSTPINSKKHIQRDYYNTLLQTGDPFSQPIKFPINGLSDVKNTSEDSENFPSSSKKSEEWPDWSEPEEPENQTVNIQIWPREPCDDVKSQCTTLDVEESSWDDCEPSSLDTKVNPGGGITATKPVTSGEQKPIPALLSLTEESMPWKSSLPQKISLVQRGDDADQIEPPKVSSQERPLKVPSELGLGEEFTIQVKKKPVKDPEMDWFADMIPEIKPSAAFLILPELRTEMVPKKDDVSPVMQFSSKFAAAEITEGEAEGWEEEGELNWEDNNW
partner: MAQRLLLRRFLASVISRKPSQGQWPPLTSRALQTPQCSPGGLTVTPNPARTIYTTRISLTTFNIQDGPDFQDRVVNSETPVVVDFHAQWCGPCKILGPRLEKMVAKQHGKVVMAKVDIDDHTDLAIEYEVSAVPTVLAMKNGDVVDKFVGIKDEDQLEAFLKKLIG
B2: Chorion-specific transcription factor GCMb (Homo sapiens), O75603 (parent)
chain: MPAAAVQEAVGVCSYGMQLSWDINDPQMPQELALFDQFREWPDGYVRFIYSSDEKKAQRHLSGWAMRNTNNHNGHILKKSCLGVVVCTQACTLPDGSRLQLRPAICDKARLKQQKKACPNCHSALELIPCRGHSGYPVTNFWRLDGNAIFFQAKGVHDHPRPESKSETEARRSAIKRQMASFYQPQKKRIRESEAEENQDSSGHFSNIPPLENPEDFDIVTETSFPIPGQPCPSFPKSDVYKATCDLATFQGDKMPPFQKYSSPRIYLPRPPCSYELANPGYTNSSPYPTLYKDSTSIPNDTDWVHLNTLQCNVNSYSSYERSFDFTNKQHGWKPALGKPSLVERTNHGQFQAMATRPYYNPELPCRYLTTPPPGAPALQTVITTTTKVSYQAYQPPAMKYSDSVREVKSLSSCNYAPEDTGMSVYPEPWGPPVTVTRAASPSGPPPMKIAGDCRAIRPTVAIPHEPVSSRTDEAETWDVCLSGLGSAVSYSDRVGPFFTYNNEDF
B3: Kappa-casein (Homo sapiens), P07498 (parent)
chain: MKSFLLVVNALALTLPFLAVEVQNQKQPACHENDERPFYQKTAPYVPMYYVPNSYPYYGTNLYQRRPAIAINNPYVPRTYYANPAVVRPHAQIPQRQYLPNSHPPTVVRRPNLHPSFIAIPPKKIQDKIIIPTINTIATVEPTPAPATEPTVDSVVTPEAFSESIITSTPETTTVAVTPPTA
B4: Microtubule-associated tumor suppressor candidate 2 (Homo sapiens), Q5JR59-3 (parent)
chain: MGHCCCKPYNCLQCLDKTNESALVKEKELSIELANIRDEVAFHTAKCEKLQKEKEELERRFEDEVKRLGWQQQAELQELEERLQLQFEAEMARLQEEHGDQLLSIRCQHQEQVEDLTASHDAALLEMENNHTVAITILQDDHDHKVQELMSTHELEKKELEENFEKLRLSLQDQVDTLTFQSQSLRDRARRFEEALRKNTEEQLEIALAPYQHLEEDMKSLKQVLEMKNQQIHEQEKKILELEKLAEKNIILEEKIQVLQQQNEDLKARIDQNTVVTRQLSEENANLQEYVEKETQEKKRLSRTNEELLWKLQTGDPTSPIKLSPTSPVYRGSSSGPSSPARVSTTPR
partner: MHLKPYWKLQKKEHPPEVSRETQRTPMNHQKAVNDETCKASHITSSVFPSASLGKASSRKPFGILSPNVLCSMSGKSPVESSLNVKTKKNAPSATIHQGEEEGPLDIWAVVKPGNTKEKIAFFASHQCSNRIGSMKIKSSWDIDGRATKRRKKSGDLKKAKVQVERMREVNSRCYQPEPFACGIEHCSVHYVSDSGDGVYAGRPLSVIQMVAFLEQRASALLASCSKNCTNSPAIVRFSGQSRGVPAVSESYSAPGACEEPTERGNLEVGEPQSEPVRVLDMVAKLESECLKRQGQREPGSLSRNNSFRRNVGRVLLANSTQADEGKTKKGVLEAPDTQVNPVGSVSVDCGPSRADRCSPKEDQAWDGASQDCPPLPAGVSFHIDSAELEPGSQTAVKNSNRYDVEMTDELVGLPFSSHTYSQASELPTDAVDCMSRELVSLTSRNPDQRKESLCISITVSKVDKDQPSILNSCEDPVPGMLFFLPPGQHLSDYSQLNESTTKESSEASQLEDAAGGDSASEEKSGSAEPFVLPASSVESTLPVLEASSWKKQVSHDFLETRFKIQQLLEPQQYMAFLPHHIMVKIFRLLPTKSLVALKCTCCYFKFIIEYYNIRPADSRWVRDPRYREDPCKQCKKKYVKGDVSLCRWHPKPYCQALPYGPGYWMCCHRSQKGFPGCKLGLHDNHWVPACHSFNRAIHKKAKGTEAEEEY
B5: Rho guanine nucleotide exchange factor 39 (Homo sapiens), Q8N4T4 (parent)
chain: MELSCPGSRCPVQEQRARWERKRACTARELLETERRYQEQLGLVATYFLGILKAKGTLRPPERQALFGSWELIYGASQELLPYLEGGCWGQGLEGFCRHLELYNQFAANSERSQTTLQEQLKKNKGFRRFVRLQEGRPEFGGLQLQDLLPLPLQRLQQYENLVVALAENTGPNSPDHQQLTRAARLISETAQRVHTIGQKQKNDQHLRRVQALLSGRQAKGLTSGRWFLRQGWLLVVPPHGEPRPRMFFLFTDVLLMAKPRPPLHLLRSGTFACKALYPMAQCHLSRVFGHSGGPCGGLLSLSFPHEKLLLMSTDQEELSRWYHSLTWAISSQKN
partner: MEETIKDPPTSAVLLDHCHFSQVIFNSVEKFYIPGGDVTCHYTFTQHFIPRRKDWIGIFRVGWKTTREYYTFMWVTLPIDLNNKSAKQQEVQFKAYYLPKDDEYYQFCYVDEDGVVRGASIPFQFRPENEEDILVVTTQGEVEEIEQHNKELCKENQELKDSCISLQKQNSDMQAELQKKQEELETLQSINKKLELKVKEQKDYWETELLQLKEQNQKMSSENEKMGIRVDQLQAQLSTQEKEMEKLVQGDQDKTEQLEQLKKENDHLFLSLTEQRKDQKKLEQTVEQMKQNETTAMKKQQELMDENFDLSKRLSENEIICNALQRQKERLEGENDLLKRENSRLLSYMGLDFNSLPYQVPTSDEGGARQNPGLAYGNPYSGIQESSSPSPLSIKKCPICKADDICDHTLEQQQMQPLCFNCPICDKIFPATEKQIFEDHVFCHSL
B6: WASH complex subunit 3 (Homo sapiens), Q9Y3C0 (parent)
chain: MDEDGLPLMGSGIDLTKVPAIQQKRTVAFLNQFVVHTVQFLNRFSTVCEEKLADLSLRIQQIETTLNILDAKLSSIPGLDDVTVEVSPLNVTSVTNGAHPEATSEQPQQNSTQDSGLQESEVSAENILTVAKDPRYARYLKMVQVGVPVMAIRNKMISEGLDPDLLERPDAPVPDGESEKTVEESSDSESSFSD
partner: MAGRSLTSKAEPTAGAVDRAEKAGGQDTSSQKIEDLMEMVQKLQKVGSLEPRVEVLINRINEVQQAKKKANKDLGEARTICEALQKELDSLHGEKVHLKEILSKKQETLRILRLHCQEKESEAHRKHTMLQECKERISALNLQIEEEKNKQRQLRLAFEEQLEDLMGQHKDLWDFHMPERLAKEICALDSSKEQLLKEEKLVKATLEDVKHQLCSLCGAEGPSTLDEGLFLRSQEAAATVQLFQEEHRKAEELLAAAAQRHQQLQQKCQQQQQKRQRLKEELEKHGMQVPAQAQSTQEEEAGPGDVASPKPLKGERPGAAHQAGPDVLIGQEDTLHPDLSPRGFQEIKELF
B7: Angiomotin (Homo sapiens), Q4VCS5 (parent)
chain: MRNSEEQPSGGTTVLQRLLQEQLRYGNPSENRSLLAIHQQATGNGPPFPSGSGNPGPQSDVLSPQDHHQQLVAHAARQEPQGQEIQSENLIMEKQLSPRMQNNEELPTYEEAKVQSQYFRGQQHASVGAAFYVTGVTNQKMRTEGRPSVQRLNPGKMHQDEGLRDLKQGHVRSLSERLMQMSLATSGVKAHPPVTSAPLSPPQPNDLYKNPTSSSEFYKAQGPLPNQHSLKGMEHRGPPPEYPFKGMPPQSVVCKPQEPGHFYSEHRLNQPGRTEGQLMRYQHPPEYGAARPAQDISLPLSARNSQPHSPTSSLTSGGSLPLLQSPPSTRLSPARHPLVPNQGDHSAHLPRPQQHFLPNQAHQGDHYRLSQPGLSQQQQQQQQQHHHHHHHQQQQQQQPQQQPGEAYSAMPRAQPSSASYQPVPADPFAIVSRAQQMVEILSDENRNLRQELEGCYEKVARLQKVETEIQRVSEAYENLVKSSSKREALEKAMRNKLEGEIRRMHDFNRDLRERLETANKQLAEKEYEGSEDTRKTISQLFAKNKESQREKEKLEAELATARSTNEDQRRHIEIRDQALSNAQAKVVKLEEELKKKQVYVDKVEKMQQALVQLQAACEKREQLEHRLRTRLERELESLRIQQRQGNCQPTNVSEYNAAALMELLREKEERILALEADMTKWEQKYLEENVMRHFALDAAATVAAQRDTTVISHSPNTSYDTALEARIQKEEEEILMANKRCLDMEGRIKTLHAQIIEKDAMIKVLQQRSRKEPSKTEQLSCMRPAKSLMSISNAGSGLLSHSSTLTGSPIMEEKRDDKSWKGSLGILLGGDYRAEYVPSTPSPVPPSTPLLSAHSKTGSRDCSTQTERGTESNKTAAVAPISVPAPVAAAATAAAITATAATITTTMVAAAPVAVAAAAAPAAAAAPSPATAAATAAAVSPAAAGQIPAAASVASAAAVAPSAAAAAAVQVAPAAPAPVPAPALVPVPAPAAAQASAPAQTQAPTSAPAVAPTPAPTPTPAVAQAEVPASPATGPGPHRLSIPSLTCNPDKTDGPVFHSNTLERKTPIQILGQEPDAEMVEYLI
partner: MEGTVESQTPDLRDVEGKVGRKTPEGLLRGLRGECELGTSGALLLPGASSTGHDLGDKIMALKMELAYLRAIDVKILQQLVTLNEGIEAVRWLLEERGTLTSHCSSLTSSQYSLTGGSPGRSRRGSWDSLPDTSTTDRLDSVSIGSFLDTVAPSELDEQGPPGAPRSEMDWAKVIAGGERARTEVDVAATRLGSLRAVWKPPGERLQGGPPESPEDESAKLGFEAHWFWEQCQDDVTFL
B8: Gem-associated protein 6 (Homo sapiens), Q8WXD5 (parent)
chain: MSEWMKKGPLEWQDYIYKEVRVTASEKNEYKGWVLTTDPVSANIVLVNFLEDGSMSVTGIMGHAVQTVETMNEGDHRVREKLMHLFTSGDCKAYSPEDLEERKNSLKKWLEKNHIPITEQGDAPRTLCVAGVLTIDPPYGPENCSSSNEIILSRVQDLIEGHLTASQ

Variants of: B1
Conditions: with thiom_human TXN2, Q99757

Variant	effect of a mutation on the interaction
L625F	with no effect

Variants of: B2
Conditions: with crx_human CRX

Variant	effect of a mutation on the interaction
D53N	with no effect

Variants of: B2
Conditions: with fhl3_human FHL3, Q13643
fhl3_human FHL3, Q13643, sequence (Q13643 whole entry): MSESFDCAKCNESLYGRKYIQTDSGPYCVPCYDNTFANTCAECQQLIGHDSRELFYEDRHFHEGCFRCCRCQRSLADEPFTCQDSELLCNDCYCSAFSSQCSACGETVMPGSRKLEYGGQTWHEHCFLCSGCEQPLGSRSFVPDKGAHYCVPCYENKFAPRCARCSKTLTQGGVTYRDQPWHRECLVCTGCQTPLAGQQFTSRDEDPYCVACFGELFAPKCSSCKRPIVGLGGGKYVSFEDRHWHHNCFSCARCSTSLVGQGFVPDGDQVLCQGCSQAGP

Variant	effect of a mutation on the interaction
D53N	with no effect

Variants of: B2
Conditions: with rbpms_human RBPMS

Variant	effect of a mutation on the interaction
D53N	with no effect

Variants of: B3
Conditions: with rbpms_human RBPMS

Variant	effect of a mutation on the interaction
R96L	with no effect

Variants of: B3
Conditions: with dmrtb_human DMRTB1, Q96MA1
dmrtb_human DMRTB1, Q96MA1, sequence (Q96MA1 whole entry): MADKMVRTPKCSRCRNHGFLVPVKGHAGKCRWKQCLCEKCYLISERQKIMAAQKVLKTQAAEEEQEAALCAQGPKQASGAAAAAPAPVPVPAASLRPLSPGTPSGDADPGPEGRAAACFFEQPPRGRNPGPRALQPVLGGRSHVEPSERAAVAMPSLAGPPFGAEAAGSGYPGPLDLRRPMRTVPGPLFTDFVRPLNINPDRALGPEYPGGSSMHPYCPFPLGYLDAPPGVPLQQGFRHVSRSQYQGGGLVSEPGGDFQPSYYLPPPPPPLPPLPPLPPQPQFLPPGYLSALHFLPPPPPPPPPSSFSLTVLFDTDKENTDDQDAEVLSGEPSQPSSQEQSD

Variant	effect of a mutation on the interaction
R96L	with no effect
A145T	with no effect

Variants of: B4
Conditions: with fbx34_human FBXO34, Q9NWN3

Variant	effect of a mutation on the interaction
A89V	with no effect

Variants of: B5
Conditions: with caco2_human CALCOCO2, Q13137

Variant	effect of a mutation on the interaction
R230C	with no effect
D204N	with no effect

Variants of: B6
Conditions: with syce1_human SYCE1, Q8N0S2

Variant	effect of a mutation on the interaction
F44L	with no effect

Variants of: B7
Conditions: with lura1_human LURAP1, Q96LR2

Variant	effect of a mutation on the interaction
T899A	with no effect

Variants of: B8
Conditions: with gemi7_human GEMIN7, Q9H840
gemi7_human GEMIN7, Q9H840, sequence (Q9H840 whole entry): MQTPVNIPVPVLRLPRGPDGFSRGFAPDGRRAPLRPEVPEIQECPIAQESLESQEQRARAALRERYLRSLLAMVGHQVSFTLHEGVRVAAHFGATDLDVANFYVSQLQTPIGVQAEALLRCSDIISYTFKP

Variant	effect of a mutation on the interaction
S25N	with no effect
